Measurements as given in patent US20240376225A1 (CHILDREN S MEDICAL CENTER, published 2024).

Key:
cyno CD21 on CHO cells = biological target: T1, cyno CD21 on CHO cells (cynomolgus monkey, UniProt A0A2K5URG6 21-1034); assay: flow cytometry, Ab15 titrated on CHO cells overexpressing cyno CD21, anti-human IgG-PE, Geo MFI
T1 construct: whole, on cells; also called CHO-cyno CD21 cells; CHO-cynoCD21
T1 sequence: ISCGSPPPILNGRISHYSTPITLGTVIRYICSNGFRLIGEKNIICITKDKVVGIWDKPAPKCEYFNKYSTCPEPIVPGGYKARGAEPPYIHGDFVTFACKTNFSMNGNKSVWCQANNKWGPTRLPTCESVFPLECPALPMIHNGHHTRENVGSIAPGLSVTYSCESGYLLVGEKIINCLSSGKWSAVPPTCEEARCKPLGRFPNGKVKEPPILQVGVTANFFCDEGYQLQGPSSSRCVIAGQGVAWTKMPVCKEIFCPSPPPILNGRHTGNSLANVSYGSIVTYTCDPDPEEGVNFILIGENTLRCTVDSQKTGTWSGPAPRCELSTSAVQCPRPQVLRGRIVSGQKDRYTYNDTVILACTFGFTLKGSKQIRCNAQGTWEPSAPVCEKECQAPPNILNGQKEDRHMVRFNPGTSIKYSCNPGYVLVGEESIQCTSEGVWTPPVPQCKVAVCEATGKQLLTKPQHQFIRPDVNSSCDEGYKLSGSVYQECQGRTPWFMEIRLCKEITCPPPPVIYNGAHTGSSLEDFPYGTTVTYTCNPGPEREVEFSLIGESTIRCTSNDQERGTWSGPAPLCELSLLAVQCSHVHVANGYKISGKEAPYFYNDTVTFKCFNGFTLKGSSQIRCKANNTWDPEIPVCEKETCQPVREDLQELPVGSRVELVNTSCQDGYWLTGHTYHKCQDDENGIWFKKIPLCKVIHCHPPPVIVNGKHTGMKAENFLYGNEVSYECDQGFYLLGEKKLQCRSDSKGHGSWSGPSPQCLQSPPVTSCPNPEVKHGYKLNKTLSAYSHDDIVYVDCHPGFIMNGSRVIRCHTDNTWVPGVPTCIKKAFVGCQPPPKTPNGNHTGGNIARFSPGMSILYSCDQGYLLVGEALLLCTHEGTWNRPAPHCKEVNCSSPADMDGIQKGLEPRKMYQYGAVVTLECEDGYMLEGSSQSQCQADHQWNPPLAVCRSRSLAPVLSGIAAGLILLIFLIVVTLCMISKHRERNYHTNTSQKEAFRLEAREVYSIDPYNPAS
Description: Ab15 binding to cell-surface human and cyno CD21 was determined using human Raji B cells (ATCC, Manassas, VA) and CHO cells over expressing cyno CD21. Cells expressing cyno CD21 were generated by transfecting CHO cells with a mammalian expression construct encoding full-length cyno CD21. Stable cell clones were selected on hygromycin-B, and their expression of cyno CD21 confirmed by flow cytometry.
For the Ab15 binding experiment, cells were dissociated with cell dissociation buffer (Sigma) and blocked on ice with PBS+3% bovine serum (BS)+human Fc blocker. Cells were stained on ice for 1 hr with 3-fold serially diluted Ab15 (starting from 50 nM), then washed with cold PBS. Secondary antibody (anti-human IgG-PE, 1:500 dilution, Invitrogen, cat. #H10104) was added on ice for 1 hr. Cells were washed with and resuspended in PBS, and analyzed for Ab15 binding on a BD Fortessa instrument.

human CD21 protein = biological target: T2, human CD21 protein (human, UniProt P20023 21-971, limits assumed); assay: SPR (Biacore)
T2 construct: the Biacore set-up is not described; also called huCD21; CR2
T2 sequence (looked up): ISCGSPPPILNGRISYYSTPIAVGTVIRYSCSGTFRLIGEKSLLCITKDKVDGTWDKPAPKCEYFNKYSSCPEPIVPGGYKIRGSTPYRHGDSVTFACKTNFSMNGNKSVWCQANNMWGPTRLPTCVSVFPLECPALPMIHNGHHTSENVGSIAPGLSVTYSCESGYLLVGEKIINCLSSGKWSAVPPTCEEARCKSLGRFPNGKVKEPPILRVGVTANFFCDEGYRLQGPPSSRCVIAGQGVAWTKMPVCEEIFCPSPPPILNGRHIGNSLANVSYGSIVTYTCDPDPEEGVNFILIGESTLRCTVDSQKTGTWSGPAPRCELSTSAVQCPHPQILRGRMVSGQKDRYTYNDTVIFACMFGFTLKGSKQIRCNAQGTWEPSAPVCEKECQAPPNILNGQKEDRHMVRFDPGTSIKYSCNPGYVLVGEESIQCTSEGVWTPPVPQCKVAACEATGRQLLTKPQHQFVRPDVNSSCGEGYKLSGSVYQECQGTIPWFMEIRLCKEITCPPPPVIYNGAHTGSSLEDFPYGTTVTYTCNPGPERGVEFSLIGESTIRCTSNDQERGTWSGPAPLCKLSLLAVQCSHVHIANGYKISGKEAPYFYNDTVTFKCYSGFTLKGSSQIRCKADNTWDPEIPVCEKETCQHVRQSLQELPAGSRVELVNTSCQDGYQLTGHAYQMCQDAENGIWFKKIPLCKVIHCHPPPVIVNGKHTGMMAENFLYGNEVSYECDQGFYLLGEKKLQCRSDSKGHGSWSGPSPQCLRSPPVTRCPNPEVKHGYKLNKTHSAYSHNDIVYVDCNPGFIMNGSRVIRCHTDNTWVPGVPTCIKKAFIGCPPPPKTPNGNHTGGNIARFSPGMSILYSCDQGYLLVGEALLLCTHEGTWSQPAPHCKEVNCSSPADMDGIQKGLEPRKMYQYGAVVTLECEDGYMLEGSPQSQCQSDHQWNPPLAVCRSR

[1] = biological target: cyno CD21 protein (cynomolgus monkey); assay: SPR (Biacore)

EC50 (cyno CD21 on CHO cells): 0.05 nM | Kd (human CD21 protein): 15.6 nM | Kd [1]: 5.77 nM
B1: Ab15 (antibody, human IgG1, kappa, V domains shown)
VH: QVQLVQSGAEVKKPGSSVKVSCKASGGTFSSYAISWVRQAPGQGLEWMGRIIPILGIANYAQKFQGRVTITADKSTSTAYMELSSLRSEDTAVYYCAREDDSSGYYQDWGQGTLVTVSS
VL: EIVMTQSPATLSLSPGESATLSCRAGQSINSHLAWYQQKPGQSPSLLIYDASTRATGVPARFSGSGFGTEFTLTISSLQSEDFAVYFCQQYEYWYTFGQGTKLEIKR
notes: Tb-labeled in the HTRF assay; also called 36C01; SC38-36C01 (IgG1 version)
